Results taken from patent publication US7229788.

What was measured:
[1] = target: T1, SHEL (synthetic human elastin; recombinant human tropoelastin splice form)
T1 chain: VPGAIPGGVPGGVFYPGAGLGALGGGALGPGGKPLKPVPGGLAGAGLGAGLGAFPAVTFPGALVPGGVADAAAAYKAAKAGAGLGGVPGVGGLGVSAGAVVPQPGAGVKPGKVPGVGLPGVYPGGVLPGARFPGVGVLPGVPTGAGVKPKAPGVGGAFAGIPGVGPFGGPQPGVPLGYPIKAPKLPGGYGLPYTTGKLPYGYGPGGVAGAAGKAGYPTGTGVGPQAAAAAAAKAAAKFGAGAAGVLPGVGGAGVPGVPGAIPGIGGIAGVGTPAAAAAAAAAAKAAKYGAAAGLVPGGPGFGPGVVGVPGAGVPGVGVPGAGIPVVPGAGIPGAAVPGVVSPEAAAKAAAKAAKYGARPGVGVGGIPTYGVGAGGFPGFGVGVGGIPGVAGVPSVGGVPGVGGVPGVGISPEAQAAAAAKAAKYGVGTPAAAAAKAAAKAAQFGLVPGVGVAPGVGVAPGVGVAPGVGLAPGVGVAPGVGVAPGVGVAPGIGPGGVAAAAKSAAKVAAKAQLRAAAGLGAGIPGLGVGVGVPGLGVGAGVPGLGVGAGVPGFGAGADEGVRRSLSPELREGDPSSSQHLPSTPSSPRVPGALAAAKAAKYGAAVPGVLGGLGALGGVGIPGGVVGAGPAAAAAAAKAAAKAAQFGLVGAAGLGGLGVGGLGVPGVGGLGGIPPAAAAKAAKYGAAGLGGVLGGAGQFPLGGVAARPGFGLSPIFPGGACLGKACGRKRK

[2] = target: T2, serine protease site peptide (SPS-peptide), N-…-C
T2 chain: KAQLRAAAGLGAGI

[3] = target: T3, SHELδ26A (SHEL lacking the sequence of exon 26A)
T3 chain: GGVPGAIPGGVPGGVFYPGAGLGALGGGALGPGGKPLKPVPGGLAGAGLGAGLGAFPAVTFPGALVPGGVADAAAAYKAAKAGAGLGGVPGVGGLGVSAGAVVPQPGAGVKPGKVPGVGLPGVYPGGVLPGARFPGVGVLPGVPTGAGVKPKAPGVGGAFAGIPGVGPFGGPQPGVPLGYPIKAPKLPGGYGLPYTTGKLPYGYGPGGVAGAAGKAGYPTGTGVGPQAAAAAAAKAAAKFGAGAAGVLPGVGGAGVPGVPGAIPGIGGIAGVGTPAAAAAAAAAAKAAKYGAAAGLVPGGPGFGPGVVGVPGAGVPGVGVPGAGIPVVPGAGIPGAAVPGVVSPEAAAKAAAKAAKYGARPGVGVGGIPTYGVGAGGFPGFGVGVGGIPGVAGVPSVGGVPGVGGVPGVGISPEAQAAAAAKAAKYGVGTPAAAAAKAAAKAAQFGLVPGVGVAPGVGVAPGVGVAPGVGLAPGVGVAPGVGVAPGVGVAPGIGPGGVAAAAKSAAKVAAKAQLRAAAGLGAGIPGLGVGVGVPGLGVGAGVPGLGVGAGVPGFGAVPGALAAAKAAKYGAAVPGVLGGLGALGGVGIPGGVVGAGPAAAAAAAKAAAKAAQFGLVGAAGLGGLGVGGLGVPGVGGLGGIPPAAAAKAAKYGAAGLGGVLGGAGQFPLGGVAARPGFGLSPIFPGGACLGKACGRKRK

B1: Gelatinase B (92 kDa gelatinase) (protein)
chain: MRTPRCGVPDLGRFQTFEGDLKWHHHNITYWIQNYSEDLPRAVIDDAFARAFALWSAVTPLTFTRVYSRDADIVIQFGVAEHGDGYPFDGKDGLLAHAFPPGPGIQGDAHFDDDELWSLGKGVVVPTRFGNADGAACHFPFIFEGRSYSACTTDGRSDGLPWCSTTANYDTDDRFGFCPSERLYTQDGNADGKPCQFPFIFQGQSYSACTTDGRSDGYRWCATTANYDRDKLFGFCPTRADSTVMGGNSAGELCVFPFTFLGKEYSTCTSEGRGDGRLWCATTSNFDSDKKWGFCPDQGYSLFLVAAHEFGHALGLDHSSVPEALMYPMYRFTEGPPLHKDDVNGIRHLYGPRPEPEPRPPTTTTPQPTAPPTVCPTGPPTVHPSERPTAGPTGPPSAGPTGPPTAGPSTATTVPLSPVDDACNVNIFDAIAEIGNQLYLFKDGKYWRFSEGRGSRPQGPFLIADKWPALPRKLDSVFEERLSKKLFFFSGRQVWVYTGASVLGPRRLDKLGLGADVAQVTGALRSGRGKMLLFSGRRLWRFDVKAQMVDPRSASEVDRMFPGVPLDTHDVFQYREKAYFCQDRFYWRVSSRSELNQVDQVGYVTYDILQCPED
- digestion of SHEL by APMA-treated gelatinase B, SDS-PAGE [1]: Digestion with gelatinase A and gelatinase B (each previously treated with APMA) of SHEL revealed SDS-PAGE patterns of preferentially digested fragments

B2: human plasmin (Sigma) (protein)
chain: KVYLSECKTGNGKNYRGTMSKTKNGITCQKWSSTSPHRPRFSPATHPSEGLEENYCRNPDNDPQGPWCYTTDPEKRYDYCDILECEEECMHCSGENYDGKISKTMSGLECQAWDSQSPHAHGYIPSKFPNKNLKKNYCRNPDRELRPWCFTTDPNKRWELCDIPRCTTPPPSSGPTYQCLKGTGENYRGNVAVTVSGHTCQHWSAQTPHTHNRTPENFPCKNLDENYCRNPDGKRAPWCHTTNSQVRWEYCKIPSCDSSPVSTEQLAPTAPPELTPVVQDCYHGDGQSYRGTSSTTTTGKKCQSWSSMTPHRHQKTPENYPNAGLTMNYCRNPDADKGPWCFTTDPSVRWEYCNLKKCSGTEASVVAPPPVVLLPDVETPSEEDCMFGNGKGYRGKRATTVTGTPCQDWAAQEPHRHSIFTPETNPRAGLEKNYCRNPDGDVGGPWCYTTNPRKLYDYCDVPQCAAPSFDCGKPQVEPKKCPGRVVGGCVAHPHSWPWQVSLRTRFGMHFCGGTLISPEWVLTAAHCLEKSPRPSSYKVILGAHQEVNLEPHVQEIEVSRLFLEPTRKDIALLKLSSPAVITDKVIPACLPSPNYVVADRTECFITGWGETQGTFGAGLLKEAQLPVIENKVCNRYEFLNGRVQSTELCAGHLAGGTDSCQGDSGGPLVCFEKDKYILQGVTSWGLGCARPNKPGVYVRVSRFVTWIEGVMRNN
- degradation of SHEL by human plasmin, SDS-PAGE [1]: Major bands could be isolated using low concentration plasmin at 55, 45, 40, 34, 28, 22 and 18 kDa
- amount of full-length SHEL after plasmin digestion with a 100:1 molar excess of SPS-peptide, SDS-PAGE and densitometry (also seen with SHELδ26A, not shown) [2]: more full-length SHEL was evident compared with controls using trypsin, plasmin, kallikrein and serum

B3: Gelatinase A (72 kDa gelatinase) (protein)
chain: YNFFPRKPKWDKNQITYRIIGYTPDLDPETVDDAFARAFQVWSDVTPLRFSRIHDGEADIMINFGRWEHGDGYPFDGKDGLLAHAFAPGTGVGGDSHFDDDELWTLGEGQVVRVKYGNADGEYCKFPFLFNGKEYNSCTDTGRSDGFLWCSTTYNFEKDGKYGFCPHEALFTMGGNAEGQPCKFPFRFQGTSYDSCTTEGRTDGYRWCGTTEDYDRDKKYGFCPETAMSTVGGNSEGAPCVFPFTFLGNKYESCTSAGRSDGKMWCATTANYDDDRKWGFCPDQGYSLFLVAAHEFGHAMGLEHSQDPGALMAPIYTYTKNFRLSQDDIKGIQELYGASPDIDLGTGPTPTLGPVTPEICKQDIVFDGIAQIRGEIFFFKDRFIWRTVTPRDKPMGPLLVATFWPELPEKIDAVYEAPQEEKAVFFAGNEYWIYSASTLERGYPKPLTSLGLPPDVQRVDAAFNWSKNKKTYIFAGDKFWRYNEVKKKMDPGFPKLIADAWNAIPDNLDAVVDLQGGGHSYFFKGAYYLKLENQSLKSVKFGSIKSDWLGC
- digestion of SHEL by APMA-treated gelatinase A, SDS-PAGE [1]: Digestion with gelatinase A and gelatinase B (each previously treated with APMA) of SHEL revealed SDS-PAGE patterns of preferentially digested fragments

B4: human leukocyte elastase (HLE) (Sigma) (protein)
chain: IVGGRRARPHAWPFMVSLQLRGGHFCGATLIAPNFVMSAAHCVANVNVRAVRVVLGAHNLSRREPTRQVFAVQRIFENGYDPVNLLNDIVILQLNGSATINANVQVAQLPAQGRRLGNGVQCLAMGWGLLGRNRGIASVLQELNVTVVTSLCRRSNVCTLVRGRQAGVCFGDSGSPLVCNGLIHGIASFVRGGCASGLYPDAFAPVAQFVNWIDSIIQ
- degradation of SHEL by human leukocyte elastase, SDS-PAGE [1]: numerous fragments were seen with two prominent fragments at 32 and 18 kDa
- degradation of SHELδ26A by human leukocyte elastase, SDS-PAGE [3]: SHELδ26A produced a similar profile but with a series of fragments appearing 4 kDa smaller
- amount of full-length SHEL after HLE digestion with SPS-peptide, SDS-PAGE and densitometry [2]: SPS-peptide also resulted in more full-length SHEL using thrombin and HLE but to a lesser extent
